# Experimental data published in the RNAGym collection of RNA variant scans (doi:10.7554/elife.80360).
# B1: HDV Ribozyme (parent)
# chain: GGCCGGCAUGGUCCCAGCCUCCUCGCUGGCGCCGGCUGGGCAACAUUCCGAGGGGACCGUCCCCUCGGUAAUGGCGAAUGGGACCCA
# Variants of: B1
# Assay: self-cleavage, relative activity (ratio to wild type); higher = more cleavage; co-transcriptional
row,Variant,self-cleavage
1,GGCCGGUAGGGUCCCAGCCUCCUCGCUGGCGCCGGCUGGGCAACAUUCCGAGGGGACCGUCCCCUCGGUAAUGGCGAAUGGGACCCA [C7U U9G],0.997
2,GGCCGGCAUGGUCCCAGCCUCCUCGCUGGGGCCGGCUGGGCAACAUUCCGAGGGGACCGUCGCCUCGGUAAUGGCGAAUGGGACCCA [C30G C62G],0
3,GGCCGGCAUGGUCCCAGCCUCCUCGCUGGCGCCGGCUGGGUAACAUUCCGAGGGUACCGUCCCCUCGGUAAUGGCGAAUGGGACCCA [C41U G55U],1
4,GGCAGGCAUGGUCCCAGCCUCCUUGCUGGCGCCGGCUGGGCAACAUUCCGAGGGGACCGUCCCCUCGGUAAUGGCGAAUGGGACCCA [C4A C24U],0
5,GGCCGGCAUGUUCCCAGCCUCCUCGCUGGCGCCGGCUGGGCAACAUUCAGAGGGGACCGUCCCCUCGGUAAUGGCGAAUGGGACCCA [G11U C49A],0.307
6,GGCCGGCCUGGUCCCAGCCUCCUCGCUGGCGCCGGCUGGGCAACAUUCCGAGUGGACCGUCCCCUCGGUAAUGGCGAAUGGGACCCA [A8C G53U],0.831
7,GGCCGGCAUGGUCCGAGCCUCCUCGCUCGCGCCGGCUGGGCAACAUUCCGAGGGGACCGUCCCCUCGGUAAUGGCGAAUGGGACCCA [C15G G28C],0.107
8,GGCCGGCAUGGUCCCAGCCUCCUCGCUGGCGCAGGCUGGGCAACAUUCCGAGGGGACCGUCCCCUCGGUAAUGGCGAAUGGGACCGA [C33A C86G],0.277
9,GGCCGGCAUGGUCCCAGCCUCCUCGCUGGCGCGGGCUGGGCAACAUUCCGAGGGUACCGUCCCCUCGGUAAUGGCGAAUGGGACCCA [C33G G55U],0.204
10,GGCCGGCAUGGUCCCAGCCUCCUCGCUGGCGCCGGCUGGGCAACAUUCCGAUGGGACCGUCCCCUCGGUAAUGGCGAAUGGUACCCA [G52U G82U],0.382
11,GGCCGGCAUGGUCCCAGCCUCCUCGCUGGCGCCGGCUGGGCAACAUCCCGAGGGGACCGUCCCCUCGAUAAUGGCGAAUGGGACCCA [U47C G68A],0.867
12,GGCUGGCAUGGUCCCAGCCUCCUCGCUGGCGCCGGCUGGGCAACAUUCCGUGGGGACCGUCCCCUCGGUAAUGGCGAAUGGGACCCA [C4U A51U],0.85
13,GGCCGGCAUGGUCCCAGCCUCCUCGGUGGCGCCGGCUGGGCAACAUUCCGAGGGGACCGUCCCCUCGGUAAUGGCGAAUGGGCCCCA [C26G A83C],0.785
14,GGCCGGCAUGGUCCCAGCCGCCUCGCUGGCGCCGGCUGGGCAACCUUCCGAGGGGACCGUCCCCUCGGUAAUGGCGAAUGGGACCCA [U20G A45C],0.158
15,GGCCGGCAUGGUCCCAGCCUCCUCGCUGGCGCCGGCUGGGCAACAUUCCGAGGGGACCGUCCCCUCGGUAAUGGCGAAUCGGAGCCA [G80C C84G],0.163
16,GGCCGGCAUGGUCCCAGCCUCCUGCCUGGCGCCGGCUGGGCAACAUUCCGAGGGGACCGUCCCCUCGGUAAUGGCGAAUGGGACCCA [C24G G25C],0.145

row,Variant,self-cleavage
1,GGCCGGCAUGGUCCCAGCCACCUCGCUGGCGCCGGCUGGGCAACAUUCCGAGGGGACCGUCCCCUCGGUAAUGGAGAAUGGGACCCA [U20A C75A],0.0923
2,GGCCGGCAUGGUCCCAGCCUCCUCGCUGGCGCCGGCUGGGCAACAUUCCGAGGGGGCCGUCCCCUCAGUAAUGGCGAAUGGGACCCA [A56G G67A],1.09
3,GGCCGGCAUGGUUCCAGCCUCCUCGCUGGCGCCGGCUGGGCAACUUUCCGAGGGGACCGUCCCCUCGGUAAUGGCGAAUGGGACCCA [C13U A45U],0.198
4,GGCCGGCAUGGUCCCAGCCUCCUCGCUGGCGCCGGCUGGGCAACAGUCCGAAGGGACCGUCCCCUCGGUAAUGGCGAAUGGGACCCA [U46G G52A],0.297
5,GGCCGGCAUGGUCCCCGCCUCCUCGCUGGCGCCGGCUGGGCAACAUUCCGAGGGGACCGUCCCCUCUGUAAUGGCGAAUGGGACCCA [A16C G67U],1.17
6,GACCGGCAUGGUCCCAGCCUCCUCGCUGGCGCCGGCUGGGCAACAUUCCGAGGGGACCGUCCCCCCGGUAAUGGCGAAUGGGACCCA [G2A U65C],0.117
7,GGCCGGCAUGGUCCCAGCCUCCUCGCUGGCGCCGGCUGGGCAACAGUCCGAGGGGACCGUCGCCUCGGUAAUGGCGAAUGGGACCCA [U46G C62G],0.0755
8,GGCCGGCAUGGUCCCAGCCUCCUCGCUGGCGCCCGCUGGGCAACAUUUCGAGGGGACCGUCCCCUCGGUAAUGGCGAAUGGGACCCA [G34C C48U],0.17
9,GGCCGGCAUGGUCCCAGCCUCCUCGCUGGCGCCGGCUGGGCAACAUGCCGAGGGGACCGUCCCCUCGGUAUUGGCGAAUGGGACCCA [U47G A71U],1.18
10,GGCCGGCAUGGUCCCAGCCUCCUCGCUGGCGCCAGCUGGGCAACAUUCCGAGGGGACCGUUCCCUCGGUAAUGGCGAAUGGGACCCA [G34A C61U],0.213
11,GGCCGGCAUGGUCCCAGCCUCCGCGCUGACGCCGGCUGGGCAACAUUCCGAGGGGACCGUCCCCUCGGUAAUGGCGAAUGGGACCCA [U23G G29A],0
12,GGCCGGCAUGGUCCCAGCCUCCUCGCUGGCGCCGGCUGGGCAACAUUCCGAGGGAACCGUCCCCUCGGUAAUGGCGAAUGGUACCCA [G55A G82U],0.241
13,GGCCGGCAUGGUCCCAGCAUCCUCGCAGGCGCCGGCUGGGCAACAUUCCGAGGGGACCGUCCCCUCGGUAAUGGCGAAUGGGACCCA [C19A U27A],0.312
14,GGCCGGCAUGGUCCCAGCCUCCUCGCUGGCGCCGGCUGGGCAACAAUCCGAGGUGACCGUCCCCUCGGUAAUGGCGAAUGGGACCCA [U46A G54U],0.684
15,GGCCGGCACGGUCCCAGCCUCCUCGCUGGCGCCGGCUGGGCAACAUUCCGAGGGGAGCGUCCCCUCGGUAAUGGCGAAUGGGACCCA [U9C C57G],1.17
16,GACCGGUAUGGUCCCAGCCUCCUCGCUGGCGCCGGCUGGGCAACAUUCCGAGGGGACCGUCCCCUCGGUAAUGGCGAAUGGGACCCA [G2A C7U],0.0852
